Consider one protein from FireProtDB (doi:10.1021/bi201253b).

The conditions of the data set: Moniliophthora perniciosa, pH 7.2, Thermal, CD, sodium phosphate buffer 4mM, whole UniProt chain shown.

What is called Tm is the temperature at the midpoint of the melting transition.

B1: wild type, A5H7H0 (protein)
chain: MQLQNFLSIVLLVVSGAIAGTVMDHDKIAKLPASGSPLETKFQPQLHIGNGCHSYPAVDAQGNWSGGLKPTGAPSAACKDTSKAQTYVRSATFQGKTALVYAWYMPKDEISTGIGHRHDWEGAVVFLNSDTQQIDGVAASAHGKWRKYPNPGGANIDDTHVKLQYSAEPVINSHALDLTDKGGDLPTLASWEGMGADARAAINERSHWGDANPPIADSLIGSSLSGAWMW
Regarding B1, the Tm is 41.6 °C (EDTA CaCl2 62.5 micro M 120 micro M), 40 °C (EDTA CaCl2 with ZnCl2 62.5 micro M 120 micro M 120 micro M) and 41.2 °C (EDTA ZnCl2 62.5 micro M 120 micro M).
